The labels stand for the following.
B1: H2M3541N (antibody, mouse IgG2, V domains shown)
VH: EVQLVESGGGLVRPGRSLRLSCAASGFTFDDYTMHWVRQAPGKGLEWVSDISWNSGTIGYADSVKGRFTISRDNAKNSLYLQMNSLRPEDTALYYCAKDMSGYAHYYYYGMDVWGQGTTVTVSS
VL: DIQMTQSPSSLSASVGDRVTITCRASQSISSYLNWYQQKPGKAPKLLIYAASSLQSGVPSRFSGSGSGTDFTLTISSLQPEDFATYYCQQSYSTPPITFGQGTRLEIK
B2: H1M3613N (antibody, mouse IgG1, V domains shown)
VH: B1 VH with R13Q, R19K, A23T, D30A, A40G, T57S, I58K, P88T, G110A, M111L
VL: not shown
B3: H1M3542N (antibody, mouse IgG1, V domains shown)
VH: B1 VH with R13Q, A23V, T28P, D30A, T57S, I58K, P88T, L93F, Y107F
VL: not shown
B4: H1M3549N (antibody, mouse IgG1, V domains shown)
VH: B1 VH with R13Q, A23V, T28P, D30A, T57S, P88T, Y107F
VL: not shown
B5: H2M2778N (antibody, mouse IgG2, V domains shown)
VH: EVQLVESGGGLVQPGRSLRLSCAASGFTFDDYSMHWVRQAPGKGLEWVSGISWNSRSIDYADSVKGRFTISRDNAKNSLYLQMNSLRAEDTALYYCVKDNSGYGRYYYYGMDVWGQGTTVSVSS
VL: KIVMTQSPATLSVSPGERATLSCRASQSVSGNLAWYQQKPGQAPRLLIYGASTRATSIPARFSGSGSGTEFTLTISSLQSEDFAVYFCQHYYNWPLTFGGGTKVEIR
B6: H1M3544N (antibody, mouse IgG1, V domains shown)
VH: EVQLVESGGGLVQPGRSLRLSCAASGFTFDDYTMHWVRQVPGKGLEWVSGISWNSGSLAYADSVKGRFTISRDNAKNSLYLQMNSLHPEDTALYYCVKDGSGYGHYSYYGLDVWGQGTTVTVSS
VL: not shown
B7: H2M2779N (antibody, V domains shown)
VH: EVQLVESGGGLVQPGGSLRLSCAATGFTFDDFTMHWVRQAPGKGLEWVSGISWNSGSIGYVDSVKGRFTISRDNAKNSLYLQMNSLRAEDTALYYCAKDNSGYGYYYYGMDVWGQGTTVTVSS
VL: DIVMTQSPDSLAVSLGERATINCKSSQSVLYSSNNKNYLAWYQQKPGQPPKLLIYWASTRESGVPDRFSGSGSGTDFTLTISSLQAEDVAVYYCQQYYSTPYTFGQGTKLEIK
B8: H2M3540N (antibody, mouse IgG2, V domains shown)
VH: QVHLEESGGGVVQPGRSLRLSCSASGFTFSSYAMHWVRQAPGKGLEWVAVIWYDGTNKYYLDSVKGRFTISRDNSKNTLFLQMNSLRAEDTAVYYCARDRGSIITHWGQGTLVTVSS
VL: DIQMTQSPSSLSASIGDRVTITCRASQNISSYLNWYQQKPGKAPKLLIYAASSLQSGVPSRFSGSGSGTDFTLTISSLQPEDFATYYCQQTYSTPPITFGQGTRLEIK
B9: H2M3543N (antibody, mouse IgG2, V domains shown)
VH: B1 VH with R13Q, T57S, I70V, P88G, Y107G
VL: B8 VL with I15V, N28S, S30R, S31N, A43V, T91S, T94N
B10: H2M2775N (antibody, mouse IgG2, V domains shown)
VH: QVQLVESGGGVVQPGRSLRLSCAASGFTFRSFGMHWVRQAPGRGLEWVAMIYFDGKNKYYADSVRGRFTISRDNSKNTLYLEMSSLRAEDTAVYFCARGPGYNWLDPWGQGTLVTVSS
VL: EIVMTQSPATLSVSPGERVILSCRASQSISRNLAWYQQKPGQAPRLLIYGATTRATGVPARFSGSGSGTEFTLTISSLQSEDFAVFYCQQYNNRPLTFGGGTEVEIK
B11: H2M2886N (antibody, mouse IgG2, V domains shown)
VH: B10 VH
VL: B10 VL
B12: H2M2885N (antibody, mouse IgG2, V domains shown)
VH: B10 VH
VL: B10 VL
B13: H2M2777N (antibody, mouse IgG2, V domains shown)
VH: B10 VH with A23I, F32Y, R43K, F53Y, K56N, E82Q, S84N, E89D
VL: B10 VL with V19A, I20T, I29V, R31S, T52S, V58I, F86Y, E103K
B14: H2M2862N (antibody, mouse IgG2, V domains shown)
VH: B10 VH with F32Y, R43K, F53Y, K56N, Y59K, E82Q, S84N, A88V
VL: EIVMTQSPATLSVSPGERATLSCRASQSVSRNLAWYQQKPGQAPRLLIYGASTRATDIPARFSGSGSGTEFILNISSLQSEDFALYYCQQYSNWPLTFGGGTEVEIK
B15: H2M3548N (antibody, mouse IgG2, V domains shown)
VH: EVQLVESGGGLVQPGRSLRLSCAASGFKFADYAMHWVRQAPGKGLEWVSEISWNSGSIGYVDSVKGRFTISRDNAKNSLYLQMNSLRAEDTALYYCVKDKSGYGHYYIGMDVWGQGTTVIVSS
VL: not shown
B16: H1M3549N (antibody, mouse IgG1, V domains shown)
VH: B1 VH with R13Q, A23V, T28P, D30A, T57S, P88T, Y107F
VL: not shown
notes: H1M: mouse IgG1 Fc, human variable regions; divalent
B17: H1M3542N (antibody, mouse IgG1, V domains shown)
VH: B1 VH with R13Q, A23V, T28P, D30A, T57S, I58K, P88T, L93F, Y107F
VL: not shown
notes: as for B16
B18: H1M3613N (antibody, mouse IgG1, V domains shown)
VH: B1 VH with R13Q, R19K, A23T, D30A, A40G, T57S, I58K, P88T, G110A, M111L
VL: not shown
notes: as for B16
B19: H2M2691N (antibody, mouse IgG2, V domains shown)
VH: B7 VH with G16R, T25S, F32Y, V61A, N77K, Y105H, S122A
VL: B5 VL with K1E, G31S, S57G, F87Y, Y92I, R107K
notes: H2M: mouse IgG2 Fc, human variable regions; divalent
B20: H2M2778N (antibody, mouse IgG2, V domains shown)
VH: B5 VH
VL: B5 VL
notes: as for B19
B21: H2M2690N (antibody, mouse IgG2, V domains shown)
VH: B7 VH with G16R, T25S, F32Y, V61A, N77K, Y105H, S122A
VL: B5 VL with K1E, G31S, S57G, F87Y, Y92I, R107K
notes: as for B19
B22: H2M3548N (antibody, mouse IgG2, V domains shown)
VH: B15 VH
VL: not shown
notes: as for B19
B23: H1H5799P (antibody, human IgG1, V domains shown)
VH: QVQLVQSGAEVKKPGASVKVSCKASGYTFIGYYMHWVRQAPGQGLEWMGWINPKSGGTNYAQKFQGRVTMTGDTSISTAYMELSRLRSDDTAVFYCARMGDGAMFDYWGQGTLVTVSS
VL: DIQMTQSPSSLSASVGDRVTITCRASQRISSYLNWYQQKAGKAPKVLIYTASSLQSGVPSRFSGSGSGTDFTLTISSLQPEDFATYYCQQSYSTPLTFGGGTKVEIK
B24: H2M2789N (antibody, mouse IgG2, V domains shown)
VH: QVTLKESGPALVKPTQTLTLTCTFSGFSLSTSGMCVSWIRQPPGKALEWLARIDWDDDKYYSTSLKTRLTISKDTSKNQVVLTMTNMDPVDTATYYCARMDIVGARGGWFDPWGQGTLVTVSS
VL: DIQMTQSPSSLSASVGDRVTITCRASQGISNYLAWFQQKPGKAPKSLIYAASSLQSGVPSKFSGSGSGTDFTLTISSLQPEDFATYYCQQYNSYPLTFGGGTKVEIK

Residue numbers refer to the chain shown, from its start.

The target of the first assay is T1, human CD3 expressed on cells (Jurkat cells; human T-cells of PBMC) (human, UniProt P09693 23-182; P20963 22-164). Description: cell-based or functional assay.
T1 sequence (chain, as listed by the source, chain 1 of 4): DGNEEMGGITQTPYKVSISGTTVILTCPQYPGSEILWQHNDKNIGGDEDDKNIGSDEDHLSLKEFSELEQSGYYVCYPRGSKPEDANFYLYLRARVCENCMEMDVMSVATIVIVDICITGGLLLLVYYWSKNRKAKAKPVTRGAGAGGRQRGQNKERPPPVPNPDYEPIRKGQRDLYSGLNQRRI
T1 sequence (chain, as listed by the source, chain 2 of 4): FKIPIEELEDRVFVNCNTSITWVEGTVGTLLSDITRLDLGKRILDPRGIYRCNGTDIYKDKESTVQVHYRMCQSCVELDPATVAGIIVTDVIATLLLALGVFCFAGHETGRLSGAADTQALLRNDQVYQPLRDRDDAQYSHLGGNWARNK
T1 sequence (P09693 23-182, chain 3 of 4): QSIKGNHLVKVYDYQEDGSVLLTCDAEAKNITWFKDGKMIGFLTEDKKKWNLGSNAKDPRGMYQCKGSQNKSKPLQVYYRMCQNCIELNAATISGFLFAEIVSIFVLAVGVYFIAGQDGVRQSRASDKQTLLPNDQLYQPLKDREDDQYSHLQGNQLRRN
T1 sequence (P20963 22-164, chain 4 of 4): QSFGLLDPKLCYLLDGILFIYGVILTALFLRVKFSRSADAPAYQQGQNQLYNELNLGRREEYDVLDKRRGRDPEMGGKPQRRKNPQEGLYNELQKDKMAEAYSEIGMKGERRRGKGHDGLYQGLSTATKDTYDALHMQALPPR
For B1, the “U937 Cytotoxicity Human T-cells” value amounted to 53.9 pM.
As for B2, the “U937 Cytotoxicity Human T-cells” value stood at 866 pM.
Still for that read-out and setting: then B3, with 29.2 pM; and B4, with 107 pM.
Still for that read-out and setting: then B5, with 0 pM; and B6, with 172 pM.
For B7, the “U937 Cytotoxicity Human T-cells” value was 675 pM.
Consider B8, for which the “U937 Cytotoxicity Human T-cells” value stood at 12.5 pM.
As for B9, the “U937 Cytotoxicity Human T-cells” value stood at 13.1 pM.
For B10, the “U937 Cytotoxicity Human T-cells” value is 3.38 pM.
Still for that read-out and setting: then B11, with 8.06 pM; and B12, with 3.71 pM; and B13, with 4.86 pM.
As for B14, the “U937 Cytotoxicity Human T-cells” value turned out to be 7.66 pM.
On to B15, for which the “U937 Cytotoxicity Human T-cells” value came to 5.5 pM.

For the next assay, the target named is T2, human CD3 expressed on cells (Jurkat cells, a CD3+ human T-cell line; human PBMC T cells) (human, UniProt P07766 23-207; P04234 22-171).
T2 construct: Cell-surface CD3 within the T cell receptor complex
T2 sequence (P07766 23-207 limits assumed, chain 1 of 2): as the sequence (chain, as listed by the source, chain 1 of 4) above
T2 sequence (P04234 22-171 limits assumed, chain 2 of 2): as the sequence (chain, as listed by the source, chain 2 of 4) above
Kind of assay: FACS on Jurkat cells. The procedure:
FACS data was acquired using the following protocol: Cells at 2×10⁵ per well were incubated with serially diluted antibodies for 30 min on ice. Post incubation, cells were washed and secondary antibody was added and incubated for an additional 30 minutes. After incubation, cells were washed, re-suspended in cold PBS containing 1% BSA and analyzed by flow cytometry with viable Jurkat cells gated by side and forward scatters. The EC₅₀s for cell binding titration were determined using Prism software with values calculated using a 4-parameter non-linear regression analysis.
As for B16, it took 2.3 nM to reach a half-maximal effect (EC50).
Consider B17, for which the EC50 (commonly the midpoint of the concentration-response curve) was 2.01 nM.
B18 came in with an EC50 of 10.3 nM.
B19 displayed an EC50 of 6.77 nM.
For the molecule B20, the response was half-maximal at 3.62 nM (EC50).
On the same count and under the same terms, then B21, with 4.37 nM; and B22, with 1.1 nM.

The target of another assay is T3, Soluble heterodimeric CD3 protein (hCD3-epsilon/hCD3-delta) with either a human Fc tag (hFcΔAdp/hFc) or a … (human, UniProt P07766 23-126; P04234 22-105).
T3 construct: also called hCD3ε/δ; not shown: Fc tag: human (hFcΔAdp/hFc)
T3 sequence (P07766 23-126 limits assumed, stated change not applied, chain 1 of 2): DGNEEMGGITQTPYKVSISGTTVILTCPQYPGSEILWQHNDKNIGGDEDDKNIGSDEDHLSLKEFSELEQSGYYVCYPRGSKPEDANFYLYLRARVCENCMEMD
T3 sequence (P04234 22-105 limits assumed, stated change not applied, chain 2 of 2): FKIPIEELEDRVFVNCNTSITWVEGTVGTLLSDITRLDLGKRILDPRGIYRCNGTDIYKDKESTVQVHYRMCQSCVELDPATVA
Description: SPR Biacore 25C antigen-capture. The method in brief:
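Rate constants fitted to a 1:1 model, giving KD as kd/ka and dissociative half-life as ln2/(60·kd) minutes. Antibodies flowed over CD3ε/δ heterodimer captured on anti-human or anti-mouse Fc surfaces, run on a Biacore T200 at 25 °C.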
For B16, the Kd (commonly the concentration at which binding is half-saturated) is 1.03 nM; the “T½” value stood at 0.667 h; the koff (usually the rate constant with which the complex falls apart) turned out to be 0.000289 s⁻¹; the on-rate (kon) (in general, the second-order rate constant of association) is 281000 M⁻¹ s⁻¹.
On to B17, for which the Kd turned out to be 0.457 nM, the “T½” value was found to be 0.967 h, the koff was 0.0002 s⁻¹ and the association rate constant (kon) came out at 437000 M⁻¹ s⁻¹.
B18: the dissociation constant (Kd) was 0.435 nM, the “T½” value was 2 h, the koff turned out to be 9.6e-05 s⁻¹ and the kon turned out to be 220000 M⁻¹ s⁻¹.
Consider B19, for which the equilibrium dissociation constant (Kd) came out at 0.254 nM, the “T½” value worked out at 19.3 h, the koff is 9.98e-06 s⁻¹ and the association rate constant (kon) stood at 39400 M⁻¹ s⁻¹.
In the case of B20, the affinity, expressed as Kd, was 0.0468 nM; the “T½” value turned out to be 29.3 h; the koff amounted to 6.57e-06 s⁻¹; the kon amounted to 150000 M⁻¹ s⁻¹.
Regarding B21, the Kd worked out at 0.0799 nM, the “T½” value is 30.3 h, the off-rate constant (koff) was found to be 6.35e-06 s⁻¹ and the kon stood at 75100 M⁻¹ s⁻¹.

Another assay concerns the target T1, human CD3 expressed on cells (Jurkat …). Description: cell-based or functional assay. The source holds these as a separate data set.
Take B23: the “EC50 [M] hPBMC Proliferation” value is 1.63e-13 M.

The target in another assay is T2, human CD3 expressed on cells (Jurkat …). Kind of assay: cell-based or functional assay.
For the molecule B24, the “EC50 [M] hPBMC Proliferation” value came to 2.85e-08 M.
For B19, the “EC50 [M] hPBMC Proliferation” value amounted to 3.43e-11 M.
For the molecule B21, the “EC50 [M] hPBMC Proliferation” value turned out to be 5.37e-12 M.
Take B22: the “EC50 [M] hPBMC Proliferation” value turned out to be 1.89e-12 M.

(Values after patent US20190127480A1 (Regeneron, published 2019).)
